The test concerns the target neuronal nitric oxide synthase (nNOS) expressed in transfected HEK 293 cells (rat).

For 2 substances, 50% inhibition of NOS activity results are on record in patent publication US5908756.

Chain of thrombin-cleaved PIN-1 (P61273 whole entry): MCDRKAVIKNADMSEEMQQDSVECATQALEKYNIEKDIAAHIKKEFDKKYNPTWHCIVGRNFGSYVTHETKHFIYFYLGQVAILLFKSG

In the case of “glutathione-S-transferase (GST)-PIN-1 fusion protein”, the 50% inhibition of NOS activity was determined as 1 µM.
To thrombin-cleaved PIN-1 belongs 5000 µM.
